From patent US12228567B2, “Colorimetric sensor kit for screening therapeutic agent for neurodegenerative disease, including amyloid shelled-gold nanoparticle, and method for screening therapeutic agent for neurodegenerative disease” (Korea University Research and Business Foundation, priority 2019, dated 2025) come the findings set out here.

The target in data set [1] is T1, Aβ(1-42) (Homo sapiens, UniProt P05067).
T1 construct: can degrade Aβ(1-42)
Briefly: Degradation activity of MMP-9 for the amyloid-gold nanoparticle, Aβ(1-42). Format: biochemical. The conditions noted are these: ASGN made with Aβ(1-42). An excerpt:
(§1) For investigation of the reactivity of the Amyloid Shelled-Gold Nanoparticle (ASGN), the reactivity of the amyloid-gold nanoparticle with amyloid-degrading proteases (protease XIV and matrix metallopeptidase 9 (MMP-9)) was investigated. As a result, it was confirmed that the composite of the present disclosure can be used not only for drug screening but also for investigation of the activity of an amyloid-degrading enzyme.
(§2) Therefore, MMP-9 degrades and removes Aβ(1-42) in the Golgi apparatus and the cytoplasm in the neurons of the brain.

Data set [2] has as its target Aβ(1-40) (Homo sapiens, UniProt P05067). Briefly: Degradation activity of MMP-9 for the amyloid-gold nanoparticle, Aβ(1-40). Format: biochemical. Particulars: ASGN made with Aβ(1-40).
From the text: as §1, §2

Aβ(1-40), sequence (P05067 672-711 limits assumed): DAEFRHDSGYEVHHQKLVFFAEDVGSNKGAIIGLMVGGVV
T1 sequence (P05067 672-713 limits assumed): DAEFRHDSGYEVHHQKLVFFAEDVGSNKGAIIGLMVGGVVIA

On to matrix metallopeptidase 9 [MMP-9], for which the “degradation of Aβ(1-42) on the amyloid-gold nanoparticle” value in data set [1] is “specifically degrades Aβ(1-42) only”. Also, the “degradation of Aβ(1-40) on the amyloid-gold nanoparticle” value in data set [2] is reported as “cannot degrade”.
